Changes are numbered by the printed parent chain.
B1: LptC of E. coli (in purified LptB2CFG) (natural protein, UniProt P0ADV9 1-191, looked up)
chain: MSKARRWVIIVLSLAVLVMIGINMAEKDDTAQVVVNNNDPTYKSEHTDTLVYNPEGALSYRLIAQHVEYYSDQAVSWFTQPVLTTFDKDKIPTWSVKADKAKLTNDRMLYLYGHVEVNALVPDSQLRRITTDNAQINLVTQDVTSEDLVTLYGTTFNSSGLKMRGNLRSKNAELIEKVRTSYEIQNKQTQP
notes: LptC, E. coli, inner membrane protein of the LptB2CFG complex; The construct of LptC is not described
B2: LptB of E. coli (in purified LptB2CFG) (natural protein, UniProt P0A9V1 1-241, looked up)
chain: MATLTAKNLAKAYKGRRVVEDVSLTVNSGEIVGLLGPNGAGKTTTFYMVVGIVPRDAGNIIIDDDDISLLPLHARARRGIGYLPQEASIFRRLSVYDNLMAVLQIRDDLSAEQREDRANELMEEFHIEHLRDSMGQSLSGGERRRVEIARALAANPKFILLDEPFAGVDPISVIDIKRIIEHLRDSGLGVLITDHNVRETLAVCERAYIVSQGHLIAHGTPTEILQDEHVKRVYLGEDFRL
notes: in the K. pneumoniae construct and in the E. coli pTRC99a-Kan LptBFG plasmid it is an 8xHis at the C terminus of LptB

How the values were obtained:
Assay in all cases: SEC; co-expressed E. coli LptB2CFG complexes (wild type and mutants) purified as the K. pneumoniae complex; HiLoad 16/600 Superdex 200 pg, 20 mM Tris-Cl pH 7.8, 150 mM NaCl, 5% glycerol, 0.05% DDM
Settings in all cases: both partners purified
[1] = target: B2
[2] = target: T1, LptF of E. coli (in purified wild-type LptB2CFG) (E. coli, UniProt P0AF98 1-366)
T1 construct: LptF, E. coli, transmembrane subunit of the LptB2CFG complex
T1 sequence (looked up): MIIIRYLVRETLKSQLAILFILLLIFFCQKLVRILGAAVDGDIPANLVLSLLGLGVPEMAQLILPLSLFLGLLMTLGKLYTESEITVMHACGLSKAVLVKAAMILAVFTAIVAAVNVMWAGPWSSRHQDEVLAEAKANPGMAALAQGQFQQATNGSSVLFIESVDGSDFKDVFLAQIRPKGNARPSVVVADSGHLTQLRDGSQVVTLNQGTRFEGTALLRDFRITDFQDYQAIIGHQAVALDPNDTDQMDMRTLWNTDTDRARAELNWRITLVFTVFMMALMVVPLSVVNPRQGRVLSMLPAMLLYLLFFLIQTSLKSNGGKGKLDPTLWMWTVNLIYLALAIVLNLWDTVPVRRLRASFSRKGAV

[3] = target: T2, LptG of E. coli (in purified wild-type LptB2CFG) (E. coli, UniProt P0ADC6 1-360)
T2 construct: LptG, E. coli, transmembrane subunit of the LptB2CFG complex
T2 sequence (looked up): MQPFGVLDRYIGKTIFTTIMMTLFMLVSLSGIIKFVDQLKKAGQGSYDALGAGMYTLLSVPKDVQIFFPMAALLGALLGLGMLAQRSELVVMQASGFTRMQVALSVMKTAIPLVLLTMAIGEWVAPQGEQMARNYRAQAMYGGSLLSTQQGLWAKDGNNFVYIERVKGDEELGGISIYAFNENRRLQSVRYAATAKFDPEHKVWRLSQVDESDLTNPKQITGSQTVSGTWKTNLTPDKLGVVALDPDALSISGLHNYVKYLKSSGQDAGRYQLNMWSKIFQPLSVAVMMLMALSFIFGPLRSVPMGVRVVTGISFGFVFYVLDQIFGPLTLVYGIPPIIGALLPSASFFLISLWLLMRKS

[4] = target: T3, LptF F26D/L62D of E. coli (in purified mutant LptB2CFG) (E. coli, UniProt P0AF98 1-366, F26D | L62D)
T3 construct: LptF, E. coli, double mutant F26D/L62D
T3 sequence (looked up): T1 sequence (looked up) with F26D, L62D

[5] = target: T4, LptG K34E/R136E of E. coli (in purified mutant LptB2CFG) (E. coli, UniProt P0ADC6 1-360, K34E | R136E)
T4 construct: LptG, E. coli, double mutant K34E/R136E
T4 sequence (looked up): T2 sequence (looked up) with K34E, R136E

Binder | binding result [1] | binding result [2] | binding result [3] | binding result [4] | binding result [5]
B1 | binds |  |  |  | 
B2 |  | binds | binds | binds | binds
